B1: ANPXY-L4-Fc2AB (protein)
chain: SLRRSSCFGGRMDRIGAQSGLGCNSFRYGGSGGSGGSGGCPPCPAPPVAGPSVFLFPPKPKDTLMISRTPEVTCVVVDVSHEDPEVQFNWYVDGVEVHNAKTKPREEQFNSTFRVVSVLTVVHQDWLNGKEYKCKVSNKGLPAPIEKTISKTKGQPREPQVYTLPPSREEMTKNQVSLTCLVKGFYPSDIAVEWESNGQPENNYKTTPPMLDSDGSFFLYSKLTVDKSRWQQGNVFSCSVMHEALHNHYTQKSLSLSPGK
modifications: Synthesized ANPxy-L4-Fc2ab (protein)
B2: ANPXY-L6-Fc2AB (protein)
chain: SLRRSSCFGGRMDRIGAQSGLGCNSFRYGGSGGSGGSGGSGGSGGSGGCPPCPAPPVAGPSVFLFPPKPKDTLMISRTPEVTCVVVDVSHEDPEVQFNWYVDGVEVHNAKTKPREEQFNSTFRVVSVLTVVHQDWLNGKEYKCKVSNKGLPAPIEKTISKTKGQPREPQVYTLPPSREEMTKNQVSLTCLVKGFYPSDIAVEWESNGQPENNYKTTPPMLDSDGSFFLYSKLTVDKSRWQQGNVFSCSVMHEALHNHYTQKSLSLSPGK
modifications: Synthesized ANPxy-L6-Fc2ab

Assay: Single-dose rat PK study of recombinant ANP-Fc fusions, i.v. or s.c.
Format: in vivo
Settings: 1 mg/kg, Sprague Dawley rats
Procedure: The pharamacokinetics of the recombinant ANP-Fc fusion candidates were assessed by running a single-dose rat PK study. Single bolus injections of ANP-Fc fusions at 1 mg/kg dose were given to Sprague Dawley rats via i.v. or s.c. injection. Vehicle control PBS injections were given to a control group of animals. […] Animals were sampled for 1 week with a contingency group going up to 3 weeks. After sampling the animals were quarantined and the plasma samples with EDTA and Aprotinin are assayed in a sandwich ELISA where the ANP is captured with a monoclonal antibody and detected with an anti-human Fc antibody. The ELISA has a sensitivity of 1 ng/mL and may be used to detect ANP-Fc fusion proteins in rat plasma. This rat PK data permits the comparison of the in vivo half-life of the ANP-Fc fusion proteins to that of the native ligand, hANP28.

Molecule	half-life (T½) (intravenous bolus) [h]	mean resonance time (MRT) (intravenous bolus) [h]	volume of distribution (Vss) (intravenous bolus) [L/kg]	area under the curve (AUC) (subcutaneous) [ng·h/mL]	half-life (T½) (subcutaneous) [h]	maximum serum concentration obtained (Cmax) (subcutaneous) [ng/mL]	percent bioavailability (% F) (subcutaneous) [%]
B1	16.8	3.91	0.61	2671	23.1	53.5	20.6
B2	11.7	3.08	0.76	2202	20.6	44	26.3

Source: US20100310561A1, “NATRIURETIC FUSION PROTEINS” (BOEHRINGER INGELHEIM INTERNATIONAL GMBH, priority 2007, published 2010)
